# According to patent publication US20060074049A1, “Use of heparinoids for treatment and prevention of dementia” (priority 2004, published 2006):
# Test system: human NPC
# Assay: Plating assay: NPC colony formation / quiescence
# Assay type: cell-based
# Details: fraction less than 30,000 Da after size-exclusion column
# Procedure: Cells and Materials: Normal human NPC were obtained from Clonetics Corp (San Diego, Calif.), and grown in neural progenitor maintenance medium (Clonetics) with human recombinant basic fibroblast growth factor, epidermal growth factor, neural survival factors and antibiotics. These cells were derived as described previously (Svendsen (1998) J. Neurosci. Meth. 85:141-152).
# Plating Assay: On day 0, HIV coat proteins at a concentration of 800 pM, or CSF at a concentration of 2% was added to cultures of NPC. Each protein or CSF sample was tested in triplicate. Cultures were incubated for seven days, and then cells were plated onto 24 well polyethylene-imine coated plates. The number of cell colonies having more than 20 cells with typical neuronal morphology was counted for each well after 7 days in culture. Determinations of colony inhibition for all proteins and CSF samples were done on each of three different lots of NPC. […]
# The ability of HIV coat proteins to induce quiescence in human NPC was tested using NPC in the form of neurospheres. […] The number of colonies containing more than 20 cells with typical neuronal morphology was counted after 7 days in culture. […] None of the coat proteins induced cell death in NPC, as determined by trypan blue staining (>95% viability in all coat-protein treated cultures). […]
molecule,measurement,value
"RANTES: inflammatory chemokine (protein, UniProt P13501 24-91, looked up) C-C motif chemokine 5: SPYSSDTTPCCFAYIARPLPRAHIKEYFYTSGKCSNPAVVFVTRKNRQVCANPEKKWVREYINSLEMS",effect on NPC in the plating assay,inhibit NPC
